The results in this text go back to article PMC8028314, “Sae2 and Rif2 regulate MRX endonuclease activity at DNA double-strand breaks in opposite manners” (Cell Reports, 2021).

This assay has as its target T1, Mre11-Rad50 complex (S. cerevisiae, UniProt P32829 1-692; P12753 1-1312).
T1 construct: Mre11, S. cerevisiae; Rad50, S. cerevisiae; untagged; they were not measured here; also called wild-type MR; source: Sf9 cells, purified (NiNTA, HiTrap SP HP, HiTrap Q HP); copies: 2 + 2
The assay is described as follows: pull-down; MBP-Rif2-his from Sf9 lysate bound to amylose resin, washed with 1 M then 0.1 M NaCl buffer (50 mM Tris-HCl pH 7.5, 0.2% NP40, 2 mM EDTA); recombinant MR variants (1 ug) added, 1 h at 4°C; washed with 0.1 M NaCl buffer; eluted with 20 mM maltose and cleaved with PreScission protease; Ponceau (Rif2) and western blots (anti-Rad50, anti-His). Particulars: both partners purified.

T1 sequence (P32829 whole entry, chain 1 of 2): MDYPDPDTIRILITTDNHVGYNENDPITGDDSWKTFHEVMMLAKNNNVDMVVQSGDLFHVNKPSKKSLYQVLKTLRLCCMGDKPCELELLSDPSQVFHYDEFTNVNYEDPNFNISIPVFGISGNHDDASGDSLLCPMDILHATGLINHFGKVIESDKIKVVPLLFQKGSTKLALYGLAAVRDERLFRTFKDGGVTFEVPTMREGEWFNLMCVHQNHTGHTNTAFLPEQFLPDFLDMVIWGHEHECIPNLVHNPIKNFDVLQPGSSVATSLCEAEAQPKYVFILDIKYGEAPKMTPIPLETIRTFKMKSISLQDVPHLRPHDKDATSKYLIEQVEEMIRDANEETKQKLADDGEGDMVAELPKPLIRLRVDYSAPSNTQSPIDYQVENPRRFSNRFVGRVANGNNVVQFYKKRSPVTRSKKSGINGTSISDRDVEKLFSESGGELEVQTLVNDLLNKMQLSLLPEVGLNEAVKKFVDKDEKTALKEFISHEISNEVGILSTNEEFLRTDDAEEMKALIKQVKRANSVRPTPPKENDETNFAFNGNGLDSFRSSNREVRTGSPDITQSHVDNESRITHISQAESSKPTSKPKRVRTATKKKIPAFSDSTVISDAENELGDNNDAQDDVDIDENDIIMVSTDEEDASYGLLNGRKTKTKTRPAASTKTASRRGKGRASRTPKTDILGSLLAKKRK
T1 sequence (P12753 whole entry, chain 2 of 2): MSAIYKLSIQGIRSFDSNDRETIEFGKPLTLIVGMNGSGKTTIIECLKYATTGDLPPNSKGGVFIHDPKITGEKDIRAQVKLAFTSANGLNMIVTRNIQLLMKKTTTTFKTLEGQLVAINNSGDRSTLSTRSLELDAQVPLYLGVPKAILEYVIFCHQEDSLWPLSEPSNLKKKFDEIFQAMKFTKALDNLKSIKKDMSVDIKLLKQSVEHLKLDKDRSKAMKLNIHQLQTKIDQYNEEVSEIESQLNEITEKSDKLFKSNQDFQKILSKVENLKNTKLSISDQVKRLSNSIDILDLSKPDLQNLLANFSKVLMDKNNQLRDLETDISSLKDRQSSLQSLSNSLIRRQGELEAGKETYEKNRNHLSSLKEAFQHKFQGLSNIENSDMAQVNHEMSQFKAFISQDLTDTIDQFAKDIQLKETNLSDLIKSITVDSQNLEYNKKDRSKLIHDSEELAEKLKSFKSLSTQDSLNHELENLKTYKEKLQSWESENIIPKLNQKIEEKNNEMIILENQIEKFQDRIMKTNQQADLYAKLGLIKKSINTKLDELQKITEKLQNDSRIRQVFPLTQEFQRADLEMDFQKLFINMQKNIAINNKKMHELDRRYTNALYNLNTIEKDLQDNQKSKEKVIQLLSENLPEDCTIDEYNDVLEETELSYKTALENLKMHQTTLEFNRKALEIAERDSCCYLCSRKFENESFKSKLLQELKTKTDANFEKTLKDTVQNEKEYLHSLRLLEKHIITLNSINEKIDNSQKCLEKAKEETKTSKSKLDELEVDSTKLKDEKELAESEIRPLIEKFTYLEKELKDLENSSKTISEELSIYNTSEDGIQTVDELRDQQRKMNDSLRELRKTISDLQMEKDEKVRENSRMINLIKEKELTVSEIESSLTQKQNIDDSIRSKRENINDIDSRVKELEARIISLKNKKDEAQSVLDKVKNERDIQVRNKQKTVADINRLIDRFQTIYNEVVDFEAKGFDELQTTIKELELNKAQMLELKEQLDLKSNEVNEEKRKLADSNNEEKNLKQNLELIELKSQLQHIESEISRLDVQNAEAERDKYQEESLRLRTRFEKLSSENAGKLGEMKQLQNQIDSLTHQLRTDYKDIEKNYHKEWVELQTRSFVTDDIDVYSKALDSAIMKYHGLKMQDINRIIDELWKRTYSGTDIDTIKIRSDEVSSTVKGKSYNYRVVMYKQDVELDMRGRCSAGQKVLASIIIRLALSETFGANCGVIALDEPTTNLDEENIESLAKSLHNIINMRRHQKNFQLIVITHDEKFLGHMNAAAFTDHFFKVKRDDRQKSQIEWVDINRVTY

B1: MBP-Rif2-his (natural protein, S. cerevisiae, UniProt Q06208 1-395, looked up)
chain: MEHVDSDFAPIRRSKKVVDSDKIVKAISDDLEQKNFTVLRKLNLVPIKKSVSSPKVCKPSPVKERVDHVFYQKFKSMALQELGTNYLSISYVPSLSKFLSKNLRSMKNCIVFFDKVEHIHQYAGIDRAVSETLSLVDINVVIIEMNDYLMKEGIQSSKSKECIESMGQASYSGQLDFEASEKPSNHTSDLMMMVMRKINNDESIDHIVYFKFEQLDKLSTSTIIEPSKLTEFINVLSVLEKSNNIAFKVLIYSNNVSISSLLSTSLKKKLNTKYTVFEMPILTCAQEQEYLKKMIKFTFDSGSKLLQSYNSLVTCQLNNKESNLAIFFEFLKVFPHPFTYLFNAYTEIIVQSRTFDELLDKIRNRLTIKNYPHSAYNFKKNQRLPLKLTRKVHDR
notes: Rif2, S. cerevisiae; recombinant full-length Rif2; The MBP tag was cleaved with PreScission protease only after elution from the resin; In the ATPase and nuclease assays purified Rif2-his with MBP cleaved off was used; The construct was a gift from A. Bianchi; also called recombinant Rif2; not shown: MBP, N-terminal, kept; 10xHis, C-terminal, kept
Take B1: the binding result is reported as “binds”.
